According to patent US7276363B2, “Nucleic acid molecules encoding red and green emitting luciferases” (Toyo Boseki Kabushiki Kaisha, priority 1998, dated 2007):

B1: PhRE: recombinant red light-emitting luciferase of Phrixothrix hirtus head lanterns, 546 amino acid residues (protein, listed as Phrixothrix hirtus)
chain: MEEENVVNGDRPRDLVFPGTAGLQLYQSLYKYSYITDGIIDAHTNEVISYAQIFETSCRLAVSLEKYGLDHNNVVAICSENNIHFFGPLIAALYQGIPMATSNDMYTEREMIGHLNISKPCLMFCSKKSLPFILKVQKHLDFLKRVIVIDSMYDINGVECVFSFDSRNTDHAFDPVKFNPKEFDPLERTALIMTSSGTTGLPKGVVISHRSITIRFVHSSDPIYGTRIAPDTSILAIAPFHHAFGLFTALAYFPVGLKIVMVKKFEGEFFLKTIQNYKIASIVVPPPIMVYLAKSPLVDEYNCSSLTEIASGGSPLGRDIADKVAKRLKVHGILQGYGLTETCSALILSPNDRELKKGAIGTPMPYVQVKVIDINTGKALGPREKGEICFKSQMLMKGYHNNPQATRDALDKDGWLHTGDLGYYDEDRFIYVVDRLKELIKYKGYQVAPAELENLLLQHPNISDAGVIEFRTNLLVNYLSACVVLEPGKTMTEKEVQDYIAELVTTTKHLRGGVVFIDSIPKGPTGKLMRNELRAIFAREQAKSKL
B2: Phrixothrix hirtus red light-emitting luciferase PhRE, recombinant, wild type, SEQ ID NO: 4 (Phrixothrix hirtus) (protein)
chain: MEEENIVNGDRPRDLVFPGTAGLQLYQSLYKYSYITDGIIDAHTNEVISYAQIFETSCRLAVSLEKYGLDHNNVVAICSENNIHFFGPLIAALYQGIPMATSNDMYTEREMIGHLNISKPCLMFCSKKSLPFILKVQKHLDFLKKVIVIDSMYDINGVECVFSFVSRYTDHAFDPVKFNPKEFDPLERTALIMTSSGTTGLPKGVVISHRSITIRFVHSSDPIYGTRIAPDTSILAIAPFHHAFGLFTALAYFPVGLKIVMVKKFEGEFFLKTIQNYKIASIVVPPPIMVYLAKSPLVDEYNLSSLTEIACGGSPLGRDIADKVAKRLKVHGILQGYGLTETCSALILSPNDRELKKGAIGTPMPYVQVKVIDINTGKALGPREKGEICFKSQMLMKGYHNNPQATRDALDKDGWLHTGDLGYYDEDRFIYVVDRLKELIKYKGYQVAPAELENLLLQHPNISDAGVIGIPDEFAGQLPSACVVLEPGKTMTEKEVQDYIAELVTTTKHLRGGVVFIDSIPKGPTGKLMRNELRAIFAREQAKSKL
B3: Phrixothrix vivianii green light-emitting luciferase PvGR, recombinant, wild type, SEQ ID NO: 2 (Phrixothrix vivianii) (protein)
chain: MEEENIRHGERPRDIVHPGSAGQQLYQSLYKFASFPEAIIDAHTNEVISYAQIFETSCRLAVSIEQYGLNENNVVGVCSENNINFFNPVLAALYLGIPVATSNDMYTDGELTGHLNISKPTIMFSSKKALPLILRVQQNLSFIKKVVVIDSMYDINGVECVSTFVARYTDHTFDPLSFTPKDFDPLEKIALIMSSSGTTGLPKGVVLSHRSLTIRFVHSRDPIYGTRTVPQTSILSLVPFHHAFGMFTTLSYFVVGLKVVMLKKFEGALFLKTIQNYKIPTIVVAPPVMVFLAKSPLVDQYDLSSLTEVATGGAPLGKDVAEAVAKRLKLPGIIQGYGLTETCCAVMITPHNAVKTGSTGRPLPYIKAKVLDNATGKALGPGERGEICFQSEMIMKGYYNNPEATIDTIDKDGWLHSGDIGYYDEDGNFFIVDRLKELIKYKGYQVAPAELENLLLQHPSIADAGVTGVPDEFGGQLPAACVVLESGKTLTEKEVQDFIAAQVTPTKHLRGGVVFVDSIPKGPTGKLIRKELREIFAQRAPKSKL

Columns and labels:
[1] = Luciferase assays: luminometer light output and time course; assay type: biochemical; conditions: for total light output: in vivo and in vitro assays of IPTG-induced colonies, corrected for spectral photosensitivity
Procedure: The activity levels were measured using a Luminescencer AB-2000 luminometer (Atto; Tokyo, Japan) by integration of total light emitted. The assay consisted of the addition of 50 μL of standard solution (2 mM ATP, 0.5 mM D-luciferin, 4 mM MgSO4 in 0.1 M Tris-HCl buffer, pH 8.0) to 10 μL of luciferase-containing extracts at 25° C. In vivo light intensities were measured after adding 50 μL of 0.5 mM D-luciferin in 0.1 M sodium citrate buffer pH 5.0 to 10 μL of bacterial suspension into a microtiter plate.

[2] = substrate: O=C(O)[C@H]1CSC(c2nc3ccc(O)cc3s2)=N1; assay: purified protein, by the assay type; conditions: other: ammonium sulfate fractionated extract, luciferin 0.03-2 mM, 4 mM ATP solution, 8 mM MgSO4, 0.1 M Tris-HCl, pH 8.0, 25° C.
[3] = substrate: Nc1ncnc2c1ncn2[C@@H]1O[C@H](COP(=O)(O)OP(=O)(O)OP(=O)(O)O)[C@@H](O)[C@H]1O; assay: KM determination, PhRE luciferase (light intensity in luminometer, Lineweaver-Burk plots); assay type: biochemical, Phrixothrix hirtus; conditions: other: ammonium sulfate fractionated extract, ATP 0.1-4 mM, 0.5 mM luciferin solution, 8 mM MgSO4, 0.1 M Tris-HCl, pH 8.0, 25° C.
Procedure: (§1) Liquid cultures of SOLR cells carrying luciferase insert containing pBl were grown on LB/amp (50 μg/mL) medium at 37° C. with shaking overnight. The preculture (1/100 vol) was then inoculated in LB/amp (50 μg/mL) in the presence of 1 mM IPTG and incubated at 23° C. during 24 h (OD600=1.8). The cells were harvested by centrifugation at 3000 rpm during 10 min at 4° C., and the pellet was resuspended in cold extraction buffer (0.1 M sodium phosphate buffer, pH 7.5, containing 2 mM EDTA, 1 mM DTT, and 1% Triton X-100). Lysozyme was added to the final concentration of 1 mg/mL and the suspension incubated 15 min at 0° C. and frozen at −80° C. during 15 min. The lysate was centrifuged at 12000 g at 4° C. during 15 min. The supernatant was then fractionated with ammonium sulfate. The fraction precipitated between 55% and 70% saturation was dissolved in cold extraction buffer and stored at −20° C. in the presence of glycerol 15%, to maintain the activity.
(§2) Measurements of light intensities for KM determinations were made using the luminometer described above. […] The assays were carried out at 25° C. Each point of the Michaelis-Menten curve was assayed in quadruplicate. The KM values were estimated by Lineweaver-Burk plots of the reciprocal of light intensities versus […].

[4] = substrate: Nc1ncnc2c1ncn2[C@@H]1O[C@H](COP(=O)(O)OP(=O)(O)OP(=O)(O)O)[C@@H](O)[C@H]1O; assay: KM determination, PvGR luciferase (light intensity in luminometer, Lineweaver-Burk plots); assay type: biochemical, Phrixothrix vivianii; conditions: other: ammonium sulfate fractionated extract, ATP 0.1-4 mM, 0.5 mM luciferin solution, 8 mM MgSO4, 0.1 M Tris-HCl, pH 8.0, 25° C.
Procedure: as §1, §2

| Molecule | rise time to the peak of intensity and decay rate of in vitro bioluminescence reaction ([1]; compared with PvGR, results not shown) | total light output [1] | Km [2] [µM] | Km [3] [µM] | Km [4] [µM] |
| --- | --- | --- | --- | --- | --- |
| B1 | faster | nearly the same values |  |  |  |
| B2 |  |  | 20 | 240 |  |
| B3 |  | nearly the same values | 150 |  | 350 |
